Experimental findings from paper PMC9942953, “Merlin tumor suppressor function is regulated by PIP2-mediated dimerization” (PLOS ONE, 2023) are described below.

In series [1] the target is T1, Merlin L64P, patient derived mutant, P35240.
T1 chain: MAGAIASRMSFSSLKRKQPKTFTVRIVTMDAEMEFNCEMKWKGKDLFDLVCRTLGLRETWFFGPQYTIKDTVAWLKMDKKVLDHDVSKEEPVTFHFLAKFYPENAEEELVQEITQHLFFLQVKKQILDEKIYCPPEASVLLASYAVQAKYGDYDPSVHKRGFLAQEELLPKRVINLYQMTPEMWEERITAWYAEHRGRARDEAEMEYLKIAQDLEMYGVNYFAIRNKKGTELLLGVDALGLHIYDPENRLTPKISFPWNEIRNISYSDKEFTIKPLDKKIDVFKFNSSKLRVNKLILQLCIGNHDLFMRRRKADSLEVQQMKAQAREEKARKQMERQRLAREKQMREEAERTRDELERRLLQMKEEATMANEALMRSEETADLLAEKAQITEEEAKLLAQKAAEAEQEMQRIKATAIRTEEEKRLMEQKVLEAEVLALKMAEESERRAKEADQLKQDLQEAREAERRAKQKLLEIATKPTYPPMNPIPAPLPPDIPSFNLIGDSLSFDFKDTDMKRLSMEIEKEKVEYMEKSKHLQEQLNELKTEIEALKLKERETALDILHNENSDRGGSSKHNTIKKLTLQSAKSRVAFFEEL
Briefly: co-IP; HEK 293T co-transfected with a GFP fusion and a NanoLuc fusion; lysis in TBS, 2 mM MgCl2, 0.5% NP-40; GFP-Trap_MA; ratio of bound to unbound luciferase activity normalised to GFP fluorescence. The conditions noted are these: remark: other sources report otherwise.

Series [2] deals with the molecule itself. The series is described as above.

B1: Merlin L64P, patient derived mutant, P35240 1-595 (natural protein)
chain: MAGAIASRMSFSSLKRKQPKTFTVRIVTMDAEMEFNCEMKWKGKDLFDLVCRTLGLRETWFFGPQYTIKDTVAWLKMDKKVLDHDVSKEEPVTFHFLAKFYPENAEEELVQEITQHLFFLQVKKQILDEKIYCPPEASVLLASYAVQAKYGDYDPSVHKRGFLAQEELLPKRVINLYQMTPEMWEERITAWYAEHRGRARDEAEMEYLKIAQDLEMYGVNYFAIRNKKGTELLLGVDALGLHIYDPENRLTPKISFPWNEIRNISYSDKEFTIKPLDKKIDVFKFNSSKLRVNKLILQLCIGNHDLFMRRRKADSLEVQQMKAQAREEKARKQMERQRLAREKQMREEAERTRDELERRLLQMKEEATMANEALMRSEETADLLAEKAQITEEEAKLLAQKAAEAEQEMQRIKATAIRTEEEKRLMEQKVLEAEVLALKMAEESERRAKEADQLKQDLQEAREAERRAKQKLLEIATKPTYPPMNPIPAPLPPDIPSFNLIGDSLSFDFKDTDMKRLSMEIEKEKVEYMEKSKHLQEQLNELKTEIEALKLKERETALDILHNENSDRGGSSKHNTIKKLTLQSAKSRVAFFEEL
For B1, the fold dimerization relative to wild type in series [1] amounted to 1.28 fold.

B2: Merlin ΔN18, deletion of the N-terminal 18 amino acids (domain or fragment, UniProt P35240 19-595, looked up)
chain: PKTFTVRIVTMDAEMEFNCEMKWKGKDLFDLVCRTLGLRETWFFGLQYTIKDTVAWLKMDKKVLDHDVSKEEPVTFHFLAKFYPENAEEELVQEITQHLFFLQVKKQILDEKIYCPPEASVLLASYAVQAKYGDYDPSVHKRGFLAQEELLPKRVINLYQMTPEMWEERITAWYAEHRGRARDEAEMEYLKIAQDLEMYGVNYFAIRNKKGTELLLGVDALGLHIYDPENRLTPKISFPWNEIRNISYSDKEFTIKPLDKKIDVFKFNSSKLRVNKLILQLCIGNHDLFMRRRKADSLEVQQMKAQAREEKARKQMERQRLAREKQMREEAERTRDELERRLLQMKEEATMANEALMRSEETADLLAEKAQITEEEAKLLAQKAAEAEQEMQRIKATAIRTEEEKRLMEQKVLEAEVLALKMAEESERRAKEADQLKQDLQEAREAERRAKQKLLEIATKPTYPPMNPIPAPLPPDIPSFNLIGDSLSFDFKDTDMKRLSMEIEKEKVEYMEKSKHLQEQLNELKTEIEALKLKERETALDILHNENSDRGGSSKHNTIKKLTLQSAKSRVAFFEEL
notes: Merlin isoform 1 without its unique N-terminal 18 amino acids; source: HEK 293T, co-transfected, in lysate; not shown: NanoLuc (probe copy) or EGFP (bait copy), C-terminal, kept
On to B2, for which the “percent dimerization relative to wild type” value in series [2] was 33%.
